Measurements: US20180086825A1 (published 2018)

Biological target: T1, Ang2 protein (R&D systems) (human, UniProt O15123 19-496, limits assumed)
T1 sequence: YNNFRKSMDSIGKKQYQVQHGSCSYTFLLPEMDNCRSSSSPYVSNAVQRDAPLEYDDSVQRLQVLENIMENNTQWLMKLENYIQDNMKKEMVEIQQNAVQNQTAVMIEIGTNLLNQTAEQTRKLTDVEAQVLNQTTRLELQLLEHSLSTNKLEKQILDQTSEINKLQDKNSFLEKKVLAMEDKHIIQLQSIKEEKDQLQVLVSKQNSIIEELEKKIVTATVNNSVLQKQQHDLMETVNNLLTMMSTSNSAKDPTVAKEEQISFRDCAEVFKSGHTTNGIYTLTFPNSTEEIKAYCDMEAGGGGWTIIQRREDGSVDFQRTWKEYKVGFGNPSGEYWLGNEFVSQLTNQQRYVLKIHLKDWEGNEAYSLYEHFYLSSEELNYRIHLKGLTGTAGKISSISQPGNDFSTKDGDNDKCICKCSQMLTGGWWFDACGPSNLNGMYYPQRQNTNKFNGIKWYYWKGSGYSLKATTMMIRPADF
Experiment: cell-based or functional assay

B1: SAIT-ANG2-AB-m10D6 (antibody, V domains shown)
VH: DVQLQESGPGLVKPSQSLSLTCTVTGYSITSDYAWNWIRQFPGNKLEWMGYINYSGNTDYNPSLKSRSSITRDTSKNQFFLQLNSVTTGDTATYYCARGNFEGAMDYWGQGTSVTVSS
VL: SIVMTQTPKFLLVSAGDRVTITCKASQSVSNDVAWYQQKPGQSPKLLIYYASNRYPGVPDRFTGSGYGTDFTFTISTVQAEDLAVYFCQQDYSSPWTFGGGTKLEIK
Tie2 phosphorylation level (pTyr/Tie2 ratio, HUVEC, 60 nM antibody with Ang2): 180%
